Source: patent publication US11912777 (NANJING LEADS BIOLABS, dated 2024)

Key:
[1] = biological target: T1, human TNFR2, mouse Fc-tag (human); experiment: blocking ELISA: hTNFR2-mFc mixed with antibody, binding to coated TNF-alpha his tag; right panel; fit value of a flat control curve; unit from the axis [a]
T1 construct: also called hTNFR2-mFc; huTNFR2-mFc
T1 chain: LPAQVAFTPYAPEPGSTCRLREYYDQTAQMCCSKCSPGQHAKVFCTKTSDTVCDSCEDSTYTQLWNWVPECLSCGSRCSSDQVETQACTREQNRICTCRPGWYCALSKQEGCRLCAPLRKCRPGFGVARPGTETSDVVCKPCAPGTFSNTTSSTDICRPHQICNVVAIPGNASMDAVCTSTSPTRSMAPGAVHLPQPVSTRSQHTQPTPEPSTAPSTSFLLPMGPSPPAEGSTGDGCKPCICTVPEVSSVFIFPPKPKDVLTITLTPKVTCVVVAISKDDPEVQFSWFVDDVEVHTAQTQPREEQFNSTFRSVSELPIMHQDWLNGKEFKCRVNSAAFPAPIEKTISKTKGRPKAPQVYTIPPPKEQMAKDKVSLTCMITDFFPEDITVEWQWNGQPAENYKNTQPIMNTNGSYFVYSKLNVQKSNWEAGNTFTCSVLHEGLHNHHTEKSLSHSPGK

[2] = biological target: T2, Human TNFR2, human Fc tag protein (human); experiment: ELISA on coated huTNFR2-huFc, top panel (with 32A1D5); fit value of a flat control curve; unit from the axis
T2 construct: also called huTNFR2-huFc; HuTNFR2-huFc

[3] = biological target: T1, human TNFR2, mouse Fc-tag; experiment: ELISA on coated human TNFR2-mFc, left panel; fit value of a flat control curve; unit from the axis [a]
[4] = biological target: T3, human TNFR2 expressed on activated PBMCs (human, UniProt P20333 23-461); experiment: flow cytometry on activated human PBMCs
T3 construct: whole, on cells; Native receptor on primary cells
T3 sequence (looked up): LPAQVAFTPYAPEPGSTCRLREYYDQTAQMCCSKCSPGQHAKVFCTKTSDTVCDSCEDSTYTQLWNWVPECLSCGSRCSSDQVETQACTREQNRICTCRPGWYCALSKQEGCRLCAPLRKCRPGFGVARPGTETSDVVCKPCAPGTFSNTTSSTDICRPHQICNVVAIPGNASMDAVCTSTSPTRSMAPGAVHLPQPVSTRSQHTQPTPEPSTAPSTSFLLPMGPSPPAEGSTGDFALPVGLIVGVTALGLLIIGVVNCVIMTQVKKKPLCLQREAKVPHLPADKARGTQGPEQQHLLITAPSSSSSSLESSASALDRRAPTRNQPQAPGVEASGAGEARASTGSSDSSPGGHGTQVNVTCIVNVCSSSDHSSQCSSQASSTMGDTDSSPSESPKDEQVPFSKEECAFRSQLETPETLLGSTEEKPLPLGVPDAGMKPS

[5] = biological target: T1, human TNFR2, mouse Fc-tag; experiment: ELISA on coated human TNFR2-mFc, left panel; fit value of a flat control curve; unit from the axis [b]
[6] = biological target: T2, Human TNFR2, human Fc tag protein; experiment: ELISA on coated huTNFR2-huFc, middle panel (with 43B7A4); fit value of a flat control curve; unit from the axis
[7] = biological target: T4, Cynomolgus TNFR2, human Fc tag protein (cynomolgus); experiment: ELISA on coated cyno-TNFR2-huFc; bottom panel
T4 construct: also called cyno-TNFR2-huFc

B1: negative control IgG (antibody, V domains shown)
VH: QVQLVESGGGAVQPGRSLRLSCAASGFTFSSYGMHWVRQAPGKGLEWVAVILYDGSDKFYADSVKGRFTISRDNSKNTLYLQMNSLRAEDTAVYYCAKVAVAGTHFDYWGQGTLVTVSS
VL: DIQMTQSPSSLSASVGDRVTITCRASQGIRNDLGWYQQKPGKAPKLLIYAASSLQSGVPSRFSGSGSGTDFTLTISSLQPEDFATYYCQQLNSYPPTFGGGTKVEIKR
notes: also called IgG Control; IgG (Negative Control)
[1]
  IC50: ~2.06 nM
[2]
  EC50: ~0.102 nM
[3]
  EC50: ~0.102 nM
[4]
  binding result: no binding
[5]
  EC50: ~3.06 nM
[6]
  EC50: 277 nM
[7]
  binding result: no binding (tested: about 1 nM)
